Reference: patent US6844486 (TEMASEK LIFE SCIENCES LABORATORY, dated 2005)

B1: GAL4 activation domain-NAC1 fusion, first 142 amino acids of NAC1 (plasmid pGANAC1 1-142) (other, not shown: large carriers)
chain: METEEEMKESSISMVEAKLPPGFRFHPKDDELVCDYLMRRSLHNNHRPPLVLIQVDLNKCEPWDIPKMACVGGKDWYFYSQRDRKYATGLRTNRATATGYWKATGKDRTILRKGKLVGMRKTLVFYQGRAPRGRKTDWVMHE
notes: Yeast two-hybrid prey
B2: GAL4 activation domain-NAC1 fusion, NAC1 amino acids 143 to the C-terminus (plasmid pGANAC1 143-324) (other, not shown: large carriers; small tags and cut ends)
chain: FRLQGSHHPPNHSLSSPKEDWVLCRVFHKNTEGVICRDNMGSCFDETASASLPPLMDPYINFDQEPSSYLSDDHHYIINEHVPCFSNLSQNQTLNSNLTNSVSELKIPCKNPNPLFTGGSASATLTGLDSFCSSDQMVLRALLSQLTKIDGSLGPKESQSYGEGSSESLLTDIGIPSTVWNC
notes: Yeast two-hybrid prey

Target: T1, GAL4 DNA binding domain-NAC1 fusion, first 199 amino acids of NAC1 (plasmid pGBNAC1 1-199) (Arabidopsis thaliana)
T1 construct: Yeast two-hybrid bait used as the fixed partner for testing the deletions; also called pGBNACl1-199; 199 amino acid version
Experiment: yeast two-hybrid in HF7c, HIS3 reporter
Description: Two-hybrid analysis (Bartel et al., 1993; Fields and Song, 1989; Chevray and Nathans, 1992; Lee et al., 1995) was applied to dimerization analysis. The yeast strain HF7c (MATa ura3–52 his3–200 ade2–101 lys2–801 trp1–901 leu2–3,112 gal4–542 gal 80–538 LYS2::GAL1$UAS$-GAL1$TATA$-HIS3 URA3::GAL4_{17mers(x3)}-CyC1$TATA$-LacZ which contains the two reporter genes LacZ and HIS3 was used. Yeast cotransformation with plasmids carrying the different Gal4 DNA binding domain and the Gal4 activation domain fusion was performed by methods known to those of skill in the art. See, e.g., Burke and Olson, 1986; Rudolph et al., 1985; Sakai et al., 1984. Other conditions have been described in detail elsewhere and are well known to those of skill in the art. To corroborate the interaction between the two fusion proteins, â-galactosidase activity was assayed by a replica filter assay.

Row | Binder | binding result
1 | B1 | no binding
2 | B2 | no binding
